“And” between values parts separate entries of the source, which are not always exact repeats. Equal values may be shown once.
B1: Guanine nucleotide-binding protein G(i) subunit alpha-3, P08753 (parent)
chain: MGCTLSAEDKAAVERSKMIDRNLREDGEKAAKEVKLLLLGAGESGKSTIVKQMKIIHEDGYSEDECKQYKVVVYSNTIQSIIAIIRAMGRLKIDFGEAARADDARQLFVLAGSAEEGVMTSELAGVIKRLWRDGGVQACFSRSREYQLNDSASYYLNDLDRISQTNYIPTQQDVLRTRVKTTGIVETHFTFKELYFKMFDVGGQRSERKKWIHCFEGVTAIIFCVALSDYDLVLAEDEEMNRMHESMKLFDSICNNKWFTDTSIILFLNKKDLFEEKIKRSPLTICYPEYTGSNTYEEAAAYIQCQFEDLNRRKDTKEVYTHFTCATDTKNVQFVFDAVTDVIIKNNLKECGLY

Variants of: B1
Details: Rattus norvegicus; pH 7.5; Thermal; Fluorescence; HEPES; NaCl MgCl2 50000 2000; transition: 2; reversible: yes; structure 6MHE; whole UniProt chain shown

Row | Variant | Tm
1 | G203A | 57.5 °C
2 | A326S | 64 °C and 62.5 °C

Same assay, conditions: Rattus norvegicus; pH 7.5; Thermal; DSC; HEPES; NaCl MgCl2 50000 2000; transition: 2; reversible: yes; structure 6MHE; whole UniProt chain shown

Row | Variant | Tm [°C]
3 | T329A | 65

— FireProtDB (doi:10.1111/febs.14143)
